# Publication PMC7007383 (Cancer discovery, 2019)
# Columns and labels:
# [1] = target: recombinant RHOA wild type (human, UniProt P61586 1-193); experiment: other fluorescence titration
# recombinant RHOA Y42C = recombinant RHOA Y42C (human, UniProt P61586 1-193, Y42C); experiment: other fluorescence titration
# Sequence of recombinant RHOA Y42C (P61586 whole entry Y42C): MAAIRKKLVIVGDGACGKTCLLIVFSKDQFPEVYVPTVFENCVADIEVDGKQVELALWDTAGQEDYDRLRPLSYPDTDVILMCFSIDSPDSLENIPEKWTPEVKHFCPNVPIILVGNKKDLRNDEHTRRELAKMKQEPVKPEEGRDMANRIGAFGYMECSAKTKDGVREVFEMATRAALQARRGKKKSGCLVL
# Sequence of recombinant RHOA wild type (P61586 whole entry): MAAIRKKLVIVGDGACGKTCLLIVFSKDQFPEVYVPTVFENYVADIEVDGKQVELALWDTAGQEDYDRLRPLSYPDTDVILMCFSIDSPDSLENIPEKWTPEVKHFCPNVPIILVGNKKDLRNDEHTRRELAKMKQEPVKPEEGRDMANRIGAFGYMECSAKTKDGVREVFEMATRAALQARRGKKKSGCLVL
Binder,Kd [1],fold change of binding against RHOA WT (recombinant RHOA Y42C)
mDia RHOA-GTP binding domain (RBD) (domain or fragment) LQDISDEQVLVLFEQMLVDMNLNEEKQQPLREKDIVIKREMVSQYLHTSKAGMNQKESSRSAMMYIQELRSGLRDMHLLSCLESLRVSLNNNPVSWVQTFGAEGLASLLDILKRLHDEKEETSGNYDSRNQHEIIRCLKAFMNNKFGIKTMLETEEGILLLVRAMDPAVPNMMIDAAKLLSALCILPQPEDMNERVLEAMTERAEMDEVERFQPLLDGLKSGTSIALKVGCLQLINALITPAEELDFRVHIRSELMRLGLHQVLQELREIENEDMKVQLCVFDEQGDEDFFDLKGRLDDIRMEMDDFGEVFQIILNTVKDSKAEPHFLSILQHLLLVRNDYEARPQYYKLIEECVSQIVLHKNGTD,460 ± 60 nM,–
"Rhotekin RHOA-GTP binding domain (RBD) (domain or fragment, UniProt Q8C6B2 17-98, looked up) ALEMEFKRGRFRLSFFSESPEDTELQRKLDHEIRMRDGACKLLAACSQREQALEATKSLLVCNSRILSYMGELQRRKEAQVL",500 ± 40 nM,–
ROCK RHOA-GTP binding domain (RBD) (domain or fragment) TKDIEILRRENEELTEKMKKAEEEYKLEKEEEISNLKAAFEKNINTERTLKTQAVNKLAEIMNRKDF,380 ± 30 nM,12 fold
